Earlier results as cited in PMC5177622, “Multivalent Histone and DNA Engagement by a PHD/BRD/PWWP Triple Reader Cassette Recruits ZMYND8 to K14ac-Rich Chromatin” (Cell Reports, 2016).
Where two headings read alike, the source gives them in different places.

Target: T1, human BAZ2B (UniProt: Q9UIF8 residues 2054-2168) WT (Homo sapiens, UniProt Q9UIF8)
T1 construct: residues 2054- 2168; made in house
T1 sequence (Q9UIF8 2054-2168): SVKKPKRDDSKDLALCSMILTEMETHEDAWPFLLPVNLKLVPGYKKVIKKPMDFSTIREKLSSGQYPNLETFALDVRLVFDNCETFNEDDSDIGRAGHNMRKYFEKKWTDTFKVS
Settings: ITC
Description: Titrations were carried out in 20 mM HEPES pH 7.5 (at 25 °C), 200 mM NaCl and 15 °C while stirring at 1000 rpm. Peptides were titrated into protein solutions. Data related to Fi gur e 5. [P] [Pep] KD ΔHobs TΔS ΔG B AZ 2 B Peptide (μM) (μM) (μM) ...

[1] = ref Filippakopoulos et al., 2012

Kd (ref Philpott et al., 2011) [µM]	N (ref Philpott et al., 2011)	TΔS (ref Philpott et al., 2011) [kcal/mol]	ΔG (ref Philpott et al., 2011) [kcal/mol]	ΔHobs (ref Philpott et al., 2011) [kcal/mol]	Kd [1] [µM]	N [1]	TΔS [1] [kcal/mol]	ΔG [1] [kcal/mol]	ΔHobs [1] [kcal/mol]	Substance
6.3 ± 0.2	1.00 ± 0.007	-0.12	-6.74	-6.86 ± 0.06						H3(5-25)K14ac: histone H3 residues 5-25 peptide bearing K14ac; data from Philpott et al., 2011
					7.6 ± 0.3	0.99 ± 0.007	-2.27	-6.64	-8.91 ± 0.08	H3(9-19)K14ac: histone H3 residues 9-19 peptide bearing K14ac; data from Filippakopoulos et al., 2012
